From patent publication US20240294632A1 (XL PROTEIN, published 2024)
Residue numbers refer to the chain shown, from its start.

Key:
IL1Ra-PAS#1(800) = assay: ELISA, Fab titrated on IL1Ra-PAS#1(800) (x axis: Fab concentration)
PAS #1(600)-Leptin [1] = target: T1, PAS #1(600)-Leptin; assay: ELISA, Fab titrated on PAS#1(600)-Leptin (x axis: Fab concentration)
T1 chain: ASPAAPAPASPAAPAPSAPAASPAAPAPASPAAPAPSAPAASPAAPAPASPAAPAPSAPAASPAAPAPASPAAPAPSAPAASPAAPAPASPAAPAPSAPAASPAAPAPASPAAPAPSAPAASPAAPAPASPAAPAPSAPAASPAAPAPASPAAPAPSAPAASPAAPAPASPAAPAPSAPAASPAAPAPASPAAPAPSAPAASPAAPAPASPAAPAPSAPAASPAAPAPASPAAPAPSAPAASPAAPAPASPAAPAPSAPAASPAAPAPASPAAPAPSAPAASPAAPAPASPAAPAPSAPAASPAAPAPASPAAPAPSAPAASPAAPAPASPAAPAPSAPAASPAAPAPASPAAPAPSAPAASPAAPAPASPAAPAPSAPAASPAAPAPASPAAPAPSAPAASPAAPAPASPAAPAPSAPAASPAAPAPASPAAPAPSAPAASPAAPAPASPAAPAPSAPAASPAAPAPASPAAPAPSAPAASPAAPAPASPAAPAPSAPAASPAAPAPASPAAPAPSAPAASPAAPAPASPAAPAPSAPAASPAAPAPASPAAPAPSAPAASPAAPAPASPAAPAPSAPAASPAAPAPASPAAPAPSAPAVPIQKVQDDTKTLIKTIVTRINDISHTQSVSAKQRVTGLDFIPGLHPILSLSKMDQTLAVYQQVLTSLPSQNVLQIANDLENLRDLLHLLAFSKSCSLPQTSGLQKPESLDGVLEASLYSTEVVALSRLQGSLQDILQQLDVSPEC

P/A#1(600)-GMCSF = assay: ELISA, Fab titrated on P/A#1(600)-GMCSF (x axis: Fab concentration)
PAS #1(200)-IL1Ra [2] = target: T2, PAS #1(200)-IL1Ra; assay: SPR, biotinylated antigen on CAPture chip, Fab as analyte, 1:1 model
T2 construct: PASylated fusion protein produced in E. coli; Biotinylated for the SPR measurements with Fabs

P/A #1(200)-IL1Ra [3] = target: T3, P/A #1(200)-IL1Ra; assay: as above
T3 construct: PASylated fusion protein produced in E. coli; Biotinylated for the SPR measurements with Fabs

P/A #1(600) polypeptide = target: T4, P/A #1(600) polypeptide; assay: ELISA, antigen coated, Fab titrated
T4 chain: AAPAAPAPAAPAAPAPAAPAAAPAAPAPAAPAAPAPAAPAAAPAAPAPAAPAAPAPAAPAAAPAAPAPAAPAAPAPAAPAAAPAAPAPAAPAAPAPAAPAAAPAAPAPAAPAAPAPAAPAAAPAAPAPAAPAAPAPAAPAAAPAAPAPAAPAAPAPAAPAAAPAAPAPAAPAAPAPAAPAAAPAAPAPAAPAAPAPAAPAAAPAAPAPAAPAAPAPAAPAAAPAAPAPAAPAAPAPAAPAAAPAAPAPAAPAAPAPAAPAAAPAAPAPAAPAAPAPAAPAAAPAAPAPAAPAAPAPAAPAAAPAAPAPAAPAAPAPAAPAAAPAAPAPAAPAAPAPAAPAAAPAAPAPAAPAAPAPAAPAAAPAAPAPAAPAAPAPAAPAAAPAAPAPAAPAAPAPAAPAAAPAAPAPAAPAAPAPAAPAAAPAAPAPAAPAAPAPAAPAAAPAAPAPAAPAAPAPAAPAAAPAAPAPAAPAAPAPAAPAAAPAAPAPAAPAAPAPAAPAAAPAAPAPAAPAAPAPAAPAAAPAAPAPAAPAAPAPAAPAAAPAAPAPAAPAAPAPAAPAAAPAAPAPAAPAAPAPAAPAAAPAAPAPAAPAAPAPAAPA

PAS #1(600)-Leptin [4] = target: T1, PAS #1(600)-Leptin; assay: ELISA, antigen coated, Fab titrated
PAS #1(600)-Leptin [5] = target: T1, PAS #1(600)-Leptin; assay: ELISA, Fab titrated on coated PAS#1(600)-Leptin
P/A #1 sequence = target: T5, P/A #1 sequence; assay: ELISA and SPR with Fabs
T5 construct: in sentences on specificity it stands for P/A #1 polypeptides in general
T5 peptide: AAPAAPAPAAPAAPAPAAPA

APSA(200)-TrxA = target: T6, APSA(200)-TrxA; assay: SPR, biotinylated antigen on CAPture chip, Fab as analyte, 1:1 model
T6 construct: Biotinylated and immobilised on a biotin CAPture chip; also called thioredoxinA-APSA(200)

APSA(200)-IL1Ra [6] = target: T7, APSA(200)-IL1Ra; assay: ELISA, antigen coated, Fab titrated
T7 construct: Fusion protein produced in E. coli; Labelled with DIG-NHS in the MAb capture ELISA

hu4D5-P/A #1(200) = target: T8, hu4D5-P/A #1(200); assay: MAb capture ELISA, hybridoma supernatant on anti-mouse IgG Fc, antigen titrated
T8 construct: Detected with anti-human kappa light chain antibody in the capture ELISA

IL1Ra (Kineret/Anakinra) = target: T9, IL1Ra (Kineret/Anakinra) (UniProt P18510 26-177); assay: western blot, hybridoma supernatant 1:2000
T9 construct: Commercial drug product; also called non-PASylated protein version

PAS #1(200)-IL1Ra [7] = target: T2, PAS #1(200)-IL1Ra; assay: SPR, MAb from hybridoma supernatant captured by anti-mouse antibody, antigen as analyte, bivalent analyte model
P/A #1(200)-IL1Ra [8] = target: T3, P/A #1(200)-IL1Ra; assay: as above
hu4D5-PAS #1(200) = target: T10, hu4D5-PAS #1(200); assay: MAb capture ELISA, hybridoma supernatant on anti-mouse IgG Fc, antigen titrated
T10 construct: Detected with anti-human kappa light chain antibody in the capture ELISA

APSA(200)-IL1Ra [9] = target: T7, APSA(200)-IL1Ra; assay: MAb capture ELISA, hybridoma supernatant on anti-mouse IgG Fc, DIG-labelled antigen titrated
APSA(200)-IL1Ra [10] = target: T7, APSA(200)-IL1Ra; assay: SPR, MAb from hybridoma supernatant captured by anti-mouse antibody, antigen as analyte, bivalent analyte model
[11] = target: T11, recombinant Galectin-3 carrying a C173T mutation and a C-terminal Strep-tag II (Homo sapiens (Human), UniProt P17931 2-250); assay: SPR, PAS-Fab captured by MAb 1.1, Galectin-3 as analyte, single cycle kinetics, 1:1 Langmuir model
T11 construct: the wording would also allow that it is the Strep-tag II alone
T11 sequence (P17931 other isoform, or with tags, fused parts or gaps C173T C173T limits assumed): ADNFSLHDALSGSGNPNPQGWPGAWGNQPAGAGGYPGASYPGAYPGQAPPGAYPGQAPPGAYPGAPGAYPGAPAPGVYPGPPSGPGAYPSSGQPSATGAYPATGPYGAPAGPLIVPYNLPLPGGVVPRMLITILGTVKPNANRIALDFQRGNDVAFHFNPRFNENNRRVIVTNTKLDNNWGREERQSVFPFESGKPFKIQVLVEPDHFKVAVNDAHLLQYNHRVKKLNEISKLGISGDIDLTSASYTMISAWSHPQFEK

T2 sequence (chain, as listed by the source limits assumed): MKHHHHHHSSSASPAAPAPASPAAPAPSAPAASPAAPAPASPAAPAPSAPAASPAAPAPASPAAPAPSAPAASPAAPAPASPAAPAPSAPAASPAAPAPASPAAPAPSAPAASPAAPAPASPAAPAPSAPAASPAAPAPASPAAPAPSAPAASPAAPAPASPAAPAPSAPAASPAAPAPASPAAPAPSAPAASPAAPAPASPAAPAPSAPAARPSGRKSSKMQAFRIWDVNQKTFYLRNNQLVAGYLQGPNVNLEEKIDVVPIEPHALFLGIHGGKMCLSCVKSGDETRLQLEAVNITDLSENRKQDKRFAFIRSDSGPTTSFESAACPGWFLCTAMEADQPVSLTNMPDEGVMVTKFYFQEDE
T9 sequence (P18510 26-177 limits assumed): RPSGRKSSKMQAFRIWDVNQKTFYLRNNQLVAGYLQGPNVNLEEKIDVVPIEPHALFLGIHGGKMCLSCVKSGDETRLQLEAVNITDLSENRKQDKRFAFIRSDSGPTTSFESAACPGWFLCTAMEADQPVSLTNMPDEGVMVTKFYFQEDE
Chain of P/A#1(600)-GMCSF (fusion protein, as listed by the source): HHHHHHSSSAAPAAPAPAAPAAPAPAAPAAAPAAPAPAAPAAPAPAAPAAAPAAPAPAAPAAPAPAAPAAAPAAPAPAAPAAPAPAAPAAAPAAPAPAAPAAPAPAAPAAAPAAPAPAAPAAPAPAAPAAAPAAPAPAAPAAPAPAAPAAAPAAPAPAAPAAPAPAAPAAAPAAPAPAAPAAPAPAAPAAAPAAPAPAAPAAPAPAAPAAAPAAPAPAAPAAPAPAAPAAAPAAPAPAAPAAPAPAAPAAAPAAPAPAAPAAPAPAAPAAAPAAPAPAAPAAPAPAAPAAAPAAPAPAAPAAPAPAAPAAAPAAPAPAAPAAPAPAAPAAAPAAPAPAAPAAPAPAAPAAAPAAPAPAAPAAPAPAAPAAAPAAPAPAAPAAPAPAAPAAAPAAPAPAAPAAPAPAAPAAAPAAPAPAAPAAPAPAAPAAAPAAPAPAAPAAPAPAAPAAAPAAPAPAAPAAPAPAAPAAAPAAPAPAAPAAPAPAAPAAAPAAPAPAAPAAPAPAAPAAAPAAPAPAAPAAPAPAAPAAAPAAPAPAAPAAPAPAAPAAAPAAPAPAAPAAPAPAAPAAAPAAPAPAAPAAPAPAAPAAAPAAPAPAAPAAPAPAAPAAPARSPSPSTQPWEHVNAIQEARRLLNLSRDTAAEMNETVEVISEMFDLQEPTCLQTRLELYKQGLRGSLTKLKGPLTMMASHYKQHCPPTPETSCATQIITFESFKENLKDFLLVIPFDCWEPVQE
Chain of IL1Ra-PAS#1(800) (chain, as listed by the source): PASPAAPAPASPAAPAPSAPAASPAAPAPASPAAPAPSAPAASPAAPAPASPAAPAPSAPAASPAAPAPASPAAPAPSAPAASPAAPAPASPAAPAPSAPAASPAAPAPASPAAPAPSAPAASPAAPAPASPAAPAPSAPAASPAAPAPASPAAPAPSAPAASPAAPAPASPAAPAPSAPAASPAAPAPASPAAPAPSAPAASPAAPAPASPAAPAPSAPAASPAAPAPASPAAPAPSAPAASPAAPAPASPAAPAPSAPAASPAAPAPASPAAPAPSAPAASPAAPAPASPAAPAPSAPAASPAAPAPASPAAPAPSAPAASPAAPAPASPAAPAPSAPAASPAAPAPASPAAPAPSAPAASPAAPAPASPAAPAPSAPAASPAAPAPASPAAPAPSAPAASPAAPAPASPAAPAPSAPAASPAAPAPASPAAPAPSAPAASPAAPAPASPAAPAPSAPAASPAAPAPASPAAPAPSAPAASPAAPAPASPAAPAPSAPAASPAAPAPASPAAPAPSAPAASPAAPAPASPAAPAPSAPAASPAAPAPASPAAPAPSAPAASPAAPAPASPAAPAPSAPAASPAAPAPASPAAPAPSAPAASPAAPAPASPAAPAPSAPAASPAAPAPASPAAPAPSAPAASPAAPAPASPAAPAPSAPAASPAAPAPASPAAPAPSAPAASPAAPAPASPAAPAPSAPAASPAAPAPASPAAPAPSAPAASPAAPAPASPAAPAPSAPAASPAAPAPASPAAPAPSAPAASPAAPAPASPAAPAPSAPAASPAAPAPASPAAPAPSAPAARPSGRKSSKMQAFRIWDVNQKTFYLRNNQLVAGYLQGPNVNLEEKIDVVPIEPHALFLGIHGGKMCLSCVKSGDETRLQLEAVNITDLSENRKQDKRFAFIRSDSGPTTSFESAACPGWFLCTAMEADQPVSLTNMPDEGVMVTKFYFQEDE

B1: Fab fragment of Anti-PA(S) MAb 2.1 (Fab, V domains shown)
VH: QVTLKESGPGILQPSQTLSLTCSFSGFSLSTYDMGVGWIRQPSGKGLEWLANIWWNDNKYYNSALKSRLTISKDTSNNQVFLKISSVDATDTATYYCAQMRDNYGVWFAFWGQGTLVTVSA
VL: DIVMSQSPSSLAVSVGEKVTMSCKSSQSLFYSNREKNYLAWYQQKPGQSPKLLIYWASTRESGVPDRFTGSGSGTDFTLTISNVKAEDLAVYYCQQYYNYPTFGAGTKLELKR
notes: also called Anti-PA(S) MAb 2.1 Fab; anti-P/A #1 Fab
- EC50 (read off the curve) (IL1Ra-PAS#1(800)): ~2 nM
- EC50 (read off the curve) (PAS #1(600)-Leptin [1]): ~2 nM
- EC50 (read off the curve) (P/A#1(600)-GMCSF): ~1 nM
- Kd (PAS #1(200)-IL1Ra [2]): 4.4 nM
- Kd (P/A #1(200)-IL1Ra [3]): 648 nM
- Kd (P/A #1(600) polypeptide): 2 nM
- Kd (PAS #1(600)-Leptin [4]): 2.2 nM

B2: Fab fragment of Anti-PA(S) MAb 1.1 (Fab, V domains shown)
VH: QVQLKESGPGLVAPSQSLSITCTVSGFSLTGYGVNWVRQPPGKGLEWLGMIWGDGITDYNSALKSRLSISKDNSKSQVFLKMNSLQTDDTARYYCARDYYGRRYYAMDYWGQGTSVTVSS
VL: DIVLTQSPASLAVSLGQRATISCRASKSVSSSGYNYMFWYQQKPGQPPKLLIYLASNLESGVPDRFWGSGSGTDFTLNIHPVEEEDAATYYCQHSRELPLTFGAGTKLELKR
notes: flanking restriction sites were introduced for subcloning; also called Anti-PA(S) MAb 1.1 Fab; anti-PAS #1 Fab
- EC50 (read off the curve) (PAS #1(600)-Leptin [5]): ~10 nM
- binding result (P/A #1 sequence): no binding
- Kd (PAS #1(200)-IL1Ra [2]): 8800 nM
- Kd (PAS #1(600)-Leptin [4]): 23 nM

B3: Fab fragment of Anti-PA(S) MAb 2.2 (Fab, V domains shown)
VH: QVTLKESGPGILQPSQTLSLTCSFSGFSLNTYGMGVGWIRQPSGKGLEWLANIWWTDDKYYNSVLKSRLTISKDTFNNQVFLKISSVDTADTATYYCAQLAYHDNPWFAYWGQGTLVTVSA
VL: B1 VL with M21L, F30L, R34N, E35Q, N83S, A105G, L111I
notes: also called Anti-PA(S) MAb 2.2 Fab; anti-P/A #1 MAb 2.2 Fab
- Kd (P/A #1(200)-IL1Ra [3]): 7000 nM
- Kd (P/A #1(600) polypeptide): 8 nM

B4: Fab fragment of Anti-PA(S) MAb 3.2 (Fab, V domains shown)
VH: QVQLQQSGAELVRPGASVKLSCKALGYTFTDYEMFWVKQTPVHGLECIGTIHPGSGGTAYNQKFKGKATLTADKSSSTAYMELSSLTSEDSAVYYCTRNDRGSWGQGTTLTVSS
VL: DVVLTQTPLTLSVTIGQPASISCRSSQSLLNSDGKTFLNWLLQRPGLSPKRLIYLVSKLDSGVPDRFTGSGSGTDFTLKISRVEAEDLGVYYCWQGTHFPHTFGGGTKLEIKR
notes: also called Anti-PA(S) MAb 3.2 Fab; anti-APSA antibody fragment
- Kd (P/A #1(200)-IL1Ra [3]): 446 nM
- Kd (APSA(200)-TrxA): 137 nM
- Kd (P/A #1(600) polypeptide): 48 nM
- Kd (PAS #1(600)-Leptin [4]): 311 nM
- Kd (APSA(200)-IL1Ra [6]): 1.6 nM

B5: Anti-PA(S) MAb 2.2 (antibody, V domains shown)
VH: B3 VH
VL: B1 VL with M21L, F30L, R34N, E35Q, N83S, A105G, L111I
notes: Mouse monoclonal IgG from hybridoma (culture supernatant); also called 3F3E2
- Kd (hu4D5-P/A #1(200)): 69 nM
- binding result (IL1Ra (Kineret/Anakinra)): no binding
- Kd (PAS #1(200)-IL1Ra [7]): 22 nM
- Kd (P/A #1(200)-IL1Ra [8]): 1.1 nM

B6: Anti-PA(S) MAb 3.2 (antibody, V domains shown)
VH: B4 VH
VL: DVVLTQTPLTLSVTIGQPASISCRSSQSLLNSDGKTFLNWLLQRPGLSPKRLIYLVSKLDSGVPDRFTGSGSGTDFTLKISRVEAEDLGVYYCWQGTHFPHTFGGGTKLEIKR
notes: Mouse monoclonal IgG from hybridoma (culture supernatant)
- Kd (hu4D5-PAS #1(200)): 294 nM
- Kd (hu4D5-P/A #1(200)): 0.4 nM
- binding result (IL1Ra (Kineret/Anakinra)): no binding
- Kd (APSA(200)-IL1Ra [9]): 0.251 nM
- Kd (APSA(200)-IL1Ra [10]): 0.108 nM
- Kd (P/A #1(200)-IL1Ra [8]): 20 nM

B7: anti-Galectin-PAS(200) Fab fragment (Fab)
chain 1: QIQLVQSGAEVKKPGESLKISCKVSGYTFTDYAIHWVRQMPGKGLKWMGWINTYTGKPIYADDFKGQVIISLDKSINTAYLQWSSLKASDTAIYYCARGTMMASLDYWGQGTTVTVSSASTKGPSVFPLAPSSKSTSGGTAALGCLVKDYFPEPVTVSWNSGALTSGVHTFPAVLQSSGLYSLSSVVTVPSSSLGTQTYICNVNHKPSNTKVDKKVEPKSCHHHHHH
chain 2: DVVMTQSPSSLSASVGDRVTITCKSSQSLVHSDGKTYLSWIQQKPGKAPKGLIYLVSKLDSGVPSRFSGSGSETDFTLTISSLQPEDSATYYCWQATHFPLTFGPGTKLEIKRTVAAPSVFIFPPSDEQLKSGTASVVCLLNNFYPREAKVQWKVDNALQSGNSQESVTEQDSKDSTYSLSSTLTLSKADYEKHKVYACEVTHQGLSSPVTKSFNRGECASPAAPAPASPAAPAPSAPAASPAAPAPASPAAPAPSAPAASPAAPAPASPAAPAPSAPAASPAAPAPASPAAPAPSAPAASPAAPAPASPAAPAPSAPAASPAAPAPASPAAPAPSAPAASPAAPAPASPAAPAPSAPAASPAAPAPASPAAPAPSAPAASPAAPAPASPAAPAPSAPAASPAAPAPASPAAPAPSAPAA
notes: also called PASylated humanized anti-Galectin Fab fragment; PAS-Fab
- Kd [11]: 0.0038 nM
- koff [11]: 3e-05 s⁻¹
- kon [11]: 7.9e+06 M⁻¹ s⁻¹
